In test [1] the target is T1, 癌胚抗原 (CEA) 抗原 (UniProt P06731 35-685, limits assumed).
T1 construct: The CEA antigen used for coating is not described further
T1 sequence (looked up): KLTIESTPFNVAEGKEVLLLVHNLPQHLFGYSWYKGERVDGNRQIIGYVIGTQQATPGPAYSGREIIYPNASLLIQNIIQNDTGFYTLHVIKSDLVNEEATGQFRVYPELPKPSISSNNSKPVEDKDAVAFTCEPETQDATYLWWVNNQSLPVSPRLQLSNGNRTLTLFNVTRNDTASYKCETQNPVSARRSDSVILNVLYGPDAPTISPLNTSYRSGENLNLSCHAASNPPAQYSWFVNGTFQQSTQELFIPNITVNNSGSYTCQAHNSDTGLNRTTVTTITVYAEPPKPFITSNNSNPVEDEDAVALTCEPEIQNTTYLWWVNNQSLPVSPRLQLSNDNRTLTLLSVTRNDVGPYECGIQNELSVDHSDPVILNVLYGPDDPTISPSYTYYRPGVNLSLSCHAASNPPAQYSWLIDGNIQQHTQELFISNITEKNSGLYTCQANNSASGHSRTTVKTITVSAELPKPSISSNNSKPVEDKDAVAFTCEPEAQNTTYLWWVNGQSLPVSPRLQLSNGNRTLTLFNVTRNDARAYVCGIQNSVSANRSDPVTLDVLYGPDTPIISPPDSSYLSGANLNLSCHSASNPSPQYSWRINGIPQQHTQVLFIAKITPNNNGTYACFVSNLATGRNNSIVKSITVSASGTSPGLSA
The test is described as follows: ELISA, CEA antigen coated; converted from 183.6 ng/ml with the relative molecular mass 27486 g/mol.

Test [2] deals with T1, 癌胚抗原 (CEA) 抗原. Put plainly: ELISA, CEA antigen coated, detection with anti-His-HRP.

We go through one molecule from patent CN112724255A (CHENGDU JINKUN BIOTECHNOLOGY CO LTD, dated 2021).

B1: 96ScFv 单链抗体 (靶向癌胚抗原的小分子抗体) (scFv)
scFv: MGQVRLRESGPSLVKPSQTLSLTCTVSGFSLTKYGVSWVRQAPGKALEWLGGVSSGALTAYNTALQSRLSVTRDTSKSQFSLSLSSVTTEDTAIYYCAKSVNGDSVPYGLDYWSPGLLITVSSGGGGSGGGGSGGGGSQAVLTQPSSVSGSLGQRVSITCSGSSSNIGGNAYVGWYQQVPGSAPRLLISATTDRASGIPDRFFGSRSGNTATLTISSLQAEDEADYYCASYQSTYSGVFGSGTMLAVLGTVAAPSVFHHHHHHHLGGC
notes: Expressed in E. coli from pET22-96ScFv and purified on Ni resin; The vector adds a C-terminal His tag and a cysteine; also called CEA小分子抗体; 本发明抗体片段
With B1, the results for the EC50 with 癌胚抗原 (CEA) 抗原 [1] and with 癌胚抗原 (CEA) 抗原 [2] were 6.7 nM and 0.184 mg/L, respectively.

In general, EC50 refers to the concentration giving half of the maximal effect. Read a high EC50 as lower potency in that assay.
